Assay: soluble fraction after stress (log2 fold change); higher = more stays soluble; pooled small domains, quantitative proteomics
Conditions: stress: 75 degC
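Further: 20 min heating vs room temperature control held 20 min.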

| Sequence | soluble fraction (log2) |
| --- | --- |
| HMVSNFEAEFGRHFAIFFPGSEFTELKLRLLEEGAELIDPIRDTPFERFFFKDPNGYIFEVIDKE | -2.81 |
| HMVSNRMVYSDFQQKWINNQVESINVNADKMTIEVTTQDEKKYTVYAPSSMIEFLNEQYPKDDIKIEYVAP | 0.153 |
| HMVSPLEKSQSFGSFEISREFARTLGLTSARNWENWAASDSRPINIPYSPNVFYKNKGWIDWSDWLGTE | -0.279 |
| HMVSRQINVIPDDLAGLRLDQALAHLFPQHSRSRLKEWLLEDIIIVQGGPKRPKDIVSGGEIVEIKL | -0.165 |
| HMVSYTLPTLHTGKNWYVDFTAYDPAEQKMKRKKYMLDGISKITERRKRAVDIIATVTARLRSGWNPWA | -2.76 |
| HMVTARMPDLFGLDEATAQRMVSNAGLTLKTEYAYSDQAEGYVFDQTPEANAEVRRGGTVTAMIS | 0.069 |
| HMVTEIDYGAFIKMTEEGNIGEVKIEDNQIVFTDKENKAIYKTGIMPDSDLTQRLYDSGAVFA | 0.128 |
| HMVTEKPLYRDELMDHDTVWVEPISMDSHLRMELRGWYHVKNRFVENEVGQRFYFDFYDIKWLAFTNGP | -5.45 |
| HMVTINTASLEKAIADAKAVVKESYTTDSYNAMKAVLDEAEDLLKEEAQDQDTIDAKTEALNAAIEALVKR | 0.166 |
| HMVTLPLLKRGHTGLPVKALQTLLVLRGMSVDVDGSFGEKTESAVRTFQTAAKILSDGEVGKDTWKALI | -1.56 |
| HMVTPPMVVVDVQGEVKTPGVYHLPTNSRVNDAIKAAGGPKQSADLSYINQARMVKDGEQIYVEKKL | 0.0962 |
| HMVTTDPIADMLTRIRNASSQKHKSVDVPASKEKLAIAQILFEEGYIKSFEEIKEENNQGVIRITLKYTEK | -0.733 |
| HMVTVPNYSDPRQYVEWGNANGITINRAVGDTIASMSGRVQDVRDSNGNSVIGKKVKKGSTVTVYIYFLK | -1.08 |
| HMVTVSAVNITPKGHTTVGFTDRSVNPPSNYYLRVGESADGWTVKDADFDDEIATLEKDGVAITLKL | -0.228 |
| HMVTYELTEDEKFIVSLLEKENSQPIGALKDKSALSGKKWDAAMKGLAKHGLTKVVVDGDNKLVVL | -0.0322 |
| HMVVEDDTVLQAVKQAIEENPEAVSDYFEGKSKALNFLVGQVMRITRGKADPAKTNQMVVEELKNR | 0.237 |
| HMVVMKGKVKWFNKNKGYGFIITDDNKEYFVHWKSIVTNSPRELKVLEQDELVTFDLMETDKGIQAINII | -2.19 |
| HMVVPELNLAQQDVLRALRQRGRATADHLSVDTHRPVSEVMGILLGLEIAEVLYRVEGGWFVPKTAR | -2.39 |
| HMVVSDKIAFSSFLKSVEDGRVVEVEITGNDIRGILSDGTVFNTYAPNDPNLVEKLTSKGVNITALPKE | 0.522 |
| HMVVYQRVHDEILQALKDNVYPVGTLLPPEPELERIYSVSRTTVRRAIAKLSEEGYVQVRQGYGTMVLKN | -3.48 |
| HMWGAYHDGQVVKFPKKVTVYVIDGQYKRPLANEFVLKFLNYKTSDIIIDKDGNLNNYKNGAVVEH | -2.79 |
| HMWMQKILGNYIAARRKELGMTQANLAEKIHVTDKAVSRWERGVGLPDIENLEALAKALEVSLVSLMQGKT | -2.36 |
| HMWNGIVDAGKARQHLMNLSQLGVGRRAVAAASDVAETVLMDIRSGTKTRIRARTERQILAVTPEMA | -2.42 |
| HMWNTADDIKEAIWKLIQSEDPKKPYSDLKISQLLLEKEMKISRRTVAKYRKEMGILGTYSRK | -0.603 |
| HMWQPIKLDRGDWQNSLQVGDRVFVRGIPRPVEILSAVDEENNIEVLMGTMRAKIPVYQLDKPAENFIDTT | -0.362 |
| HMWQVVEVDYGTFMSMTEDGQVGRVEIQEQENLILFTDQEETTVYKTAMVDDPDLTARLHDAGIPFYGQE | -1.06 |

| Sequence | soluble fraction (log2) |
| --- | --- |
| HMWSGEPFLDELRHADTLLETDPEAALAEYRALADKGSAAAMMALGNAYASGSHVARDEGEAEHWYRRAA | 0.0377 |
| HMWSLLVILQLREGGQRFSQLQRAIPDISQRMLTQTLRKLERDGLVSRKVTPSTPPRVDYAITELGH | -0.841 |
| HMWSQEPEYRPLYNSMDGFDAGQVVEMLQQSRIDYKVEPNSGALLVRSEDLADARLRLASAGISP | 0.0488 |
| HMYAEVTITIEKGMTSDSVSKLLYKAGIVDDAKEFNNYIIKAGKSTKILIGEFTIQKGASYDDIIKIIA | -3.51 |
| HMYAGTVTQVKNNKVMLEFDGETVNVGDQFFILNSDGKKVAIVEITAAKNKKALANVLKGKAVVDGTTQAK | -0.476 |
| HMYAVDTIHKGTITEMTDKGAVVSLGDNIDGFAPARQLVKEDGTTLKLGDTADFKVIEFSKATKRITLSH | 0.58 |
| HMYAVQKGDTLKKIADQFGISVDTIKWANDMKGDALSIDQELKIP | 0.414 |
| HMYDAEAINKFFDIENWDFGETFYFQELSAYIMNQLSPKLVTILIVPRQTTQAFGSLFEIKSEPDEIFAS | 0.172 |
| HMYDDEELDVLAHRPIESYTDAELAMLREVAETLLETDYEGWLKSLSMRGILLPPEILQLVT | -0.269 |
| HMYDDLEPFDANGRLRWSDKELILAFGRHRGVTLQTLELNDPGYLRWLLSGNGPLEQQDRKRLEDILES | -1.45 |
| HMYDEKTLRKAVLDYVRDNDDGRLDLMKIDSYLTSRYGNIDYAALGYNRLSMFISSFPELRRNSNYVTLRK | -1.44 |
| HMYEDNERNLYSVVINFLNEHKIKISREAINLVINRSSGDKHNLKQELNKILNYSFSNKNITYETIEKLSN | -1.83 |
| HMYEDNERSLVPIVQNFLKEKKILLSNQSINLIVQRSGGDRINLYNELQKIESFSKNQKKIDIGDIIKLTN | -1.03 |
| HMYEDSNQSLNFFAIKFIKEKNIKISQETTNLIVERARGDRGNLINELQKLEALSLTRKKITQEDVFNLTN | -1.99 |
| HMYEGLILINKYDSLVSAKLETNKIKSLGLFFEDMEEKIAVFSGPFKNNDINLKLDFLIRNGYLDAKIY | -4.87 |
| HMYEIEDIKEKLLDLLANSKTGFSGLEISNRLGINRITVSKYLNIFSAEGLIKQKNIGNVIIWFVEDGIE | -0.509 |
| HMYEVDGLGIRIAQLRKKQDLTQEAFARTLGVSPQAVSKWETGIGYPDITLLPQIAKELGVSIDQLFGRN | -0.307 |
| HMYFGDADGNKKVDAADALYLKRHLADWEDYRELPQKTNVSWMDEASPANLMILERHIAGWKDYEMLPYT | -0.425 |
| HMYFMDEETWESKKTLLNDWYEANPEYADRRAISDGLFKIGDLQPDFRRRHWGSIGVIFADIPNSPMG | -0.502 |
| HMYGHKLDSYESYVVSELRRWPFLSAPQIHDRLKEHFSDLPLVTPKTVFNFVNRLRLTHSLPKE | -3.38 |
| HMYGLSFLIGFTVVDRTYGDIGKVTAIDDSTVNTLMAVGDRLIPAQEAFITKIDNTKKIIYTQLPEGLL | -1.17 |
| HMYGTQTVNRGAVQPGMLVKHKDSTWTASANARGRLYLHRGVEMTYTRDLLVEVYLNGLGNGL | 0.158 |
| HMYHADLIGLRVETAAGEKLGTVKAVHNFGAGDVIEITGAEDKDGLMVPFTAEVVPEVDIENGRIVVS | -0.0762 |
| HMYHKKEKAQAANIEERIMILLSDGKHHHITEIKAIYVDEVITLNILEEMLAEEKVIIEGDMIMLVE | -3.64 |
| HMYKLTTQRRAILDVIIENHDKHLNPEEIYDIVKEKYPEIGIATVYRTLQLLEKLNIIYRLNFDDGYNRYE | -2.87 |
| HMYKLTYVVDGEVYLEETVSYGSKIAAAPAPEKEGYTFSGWEGLPEVMPAKDVTVSGSFTVN | -0.69 |

| Sequence | soluble fraction (log2) |
| --- | --- |
| HMYKMKDRIKKIMEMQRTTQQDFADQLKIAPATLSSIFTGRTRPTLAIVDAIKSRFPQISTDWLMFGKGDM | -0.151 |
| HMYKNAFITYDNNLYYLGSDSKMAIGWQSIGGNTYYFRNWGGMITGKQVIDGKTYVFDEDGKLVQSPD | -1.25 |
| HMYLNYQTIGKRIRLLRKQQHLTQMTLAEMVDKSPTYISLVENGQKGPSLETLIDVANALKVTMDVLLAEY | -4.94 |
| HMYLPPYMEVRAVMILDGKPMALMYIEGEGDGLIVSPGYKFDNGKGKVVSITPTKVVVLWAGTKMELG | -3.37 |
| HMYLYHDLSDEAKAMGDEYVSVEHLVLALIRYPNNAVKELFREFGITRERFLQVLSTIRGNQRVTSDNPEA | 0.0272 |
| HMYMFSGQRLKSLRKEKKMSQEKLGSLLNISKVAVSNWENAKSFPTMDNLNELAKVLEVEPHYF | -1.33 |
| HMYMKLSVKDAALFLSVSPETVYRWVKQEEIPYHTVNDQLRFNRAELLEWATARSLEVSPDLFVP | -3.84 |
| HMYMWQVEDLIRANGLDIERIKDSIIRPYELDEERKRELTQWYEDLIDMMRREGVAQSGHLQIN | -3.28 |
| HMYNMEELAGHTEKVYNSLPEELKLVIKLREIENMSYDEISLKTGMPIGTVRSRLHRAREILVDSLKDY | -1.28 |
| HMYQNRLFYTLKTGETVADLSKSQDINLSTIWSLNKHLYSSESEMMKAAPGQQIILPLKKLP | -0.247 |
| HMYQPLRDVIFETLRKAIVSGDIKPGERLMEVSLANQMGVSRTPVREAIRRLEAEGLVTMTPRKGTHVAE | -0.891 |
| HMYQRLPFSFANRYKMVLESQHPERAPILYYVEPLKSAAIIEVSRVVKNGFTPQAITLDEFDKKLTDAYQR | -1.43 |
| HMYRLSPSWRIVERDDGFEIYGGDDARFQLDPSPLVSRLAAGDAVTRDGLDPTGAIEFEQLLSAGMIRPEI | -0.263 |
| HMYRYTTFKVKEADTLLPFIQKSLNGISHNRAKAILTGGGVLVDKKITRAYDFALRPGMTVEISKSKP | -1.72 |
| HMYRYYSTLRPITPGAYPKPADNPAMLIHNFDNREYVGKIGREAWGYVEYNNPLTKEQIEAFDFVAE | 0.0626 |
| HMYSDIERAMTNAPEQFANKQAVLDFLNKNRIKKSEVDDYRIASLLKLYDDASPISKTEIISQVRT | 0.396 |
| HMYSDQRMEIFLEHLPDFIEQLSHKHVTRQMVWEDYRMIYPDGYGKSQFFFHLAQNLKAQKP | -3.21 |
| HMYSYSFTSSEGSTFEGQLIRVEESQVTILRYADQKEFSIPKSRFIEADQVYFERWAIENPQL | -4.18 |
| HMYSYSGSVSNTHDVPVSVVLKDAEGVAIASWDLQAKQSLNISAKDIATSSGTIEITGDGVSETKTVTFTK | 1.03 |
| HMYTVKELSRLTGLTPRTLRYYDAIGLLSPARNRDNDYRLYGGAEVDRLQEILLYREMGLPLEEIGRILD | -1.51 |
| HMYTVQPHESLWSIAASQLGDGHRFTEIVDLNQELLGGKANFIKPGWVLQIP | -0.362 |
| HMYTVVVGDSPSLIADKTGVPLKELTAMNPNLSDNFLPGKQLL | -0.0135 |
| HMYVEVPNFIGVPLVKVQSELASLGLVFNKSVVYQTSPYLKGNILDQRPLPGEVVPLNTEMSFTVSSGPA | -0.5 |
| HMYVKIAADAAMPYTIKRVVTDYSSAALDAAYDGSLPKWLTISSSTKDAGSGLYRHEIIYTVTAHPE | -0.666 |
| HMYVYEPGEFAVRGSILDVYSYASEFPYRIDFFGDDVESIRTFEVQTQLSKEAKDRVSIVPDTEQ | -0.258 |

From the domain aggregation screens of Martell et al. (2025)
